Measured values as given in the supplement of paper PMC12764529.
± gives the half width of the 95% confidence interval.

Columns and labels:
[1] = folding stability dG unfold (combined trypsin and chymotrypsin); higher = more stable
Method in brief: (§1)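 Bayesian fitting of sequencing counts gave K50 for each design. Unfolding free energy followed by setting this against a sequence-predicted unfolded-state K50 and a shared folded-state K50, either per protease or with trypsin and chymotrypsin combined. The designs, under 80 residues and lacking cysteine, were digested in a PA-tagged cDNA display format at 11 threefold-diluted protease concentrations and without protease, and only those with AlphaFold2 dimer inter-PAE above 15 were kept.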

[2] = folding stability dG unfold from trypsin proteolysis; higher = more stable
Method in brief: as §1

[3] = folding stability dG unfold from chymotrypsin proteolysis; higher = more stable
Method in brief: as §1

Row | Sequence | folding stability dG unfold [1] | folding stability dG unfold [2] | folding stability dG unfold [3]
1 | SAVPLSEEELEALLEEKAKEKAEEILKENPELPPGAVIKIKVEYEQEVVLEDKVEPVKYEREVEYKVPLSAG [r14_486_JUSTAS] | -0.0614 ± 0.44 kcal/mol | 0.00158 ± 0.12 kcal/mol | -0.503 ± 0.76 kcal/mol
2 | SAVVLKEPGPVTTVVTTDPATGVTTTVTTDPSAGTTTVTTTDPASAAVTTTTYTTLPDGTPVPTTTTTPASA [r9_1073_JUSTAS] | 1.05 ± 0.038 kcal/mol | 1.22 ± 0.031 kcal/mol | 0.86 ± 0.032 kcal/mol
3 | SAWIPAKEIAKYLAKELQEKMPHPGMKIPVDVETNPEENYVRVDIDIEHPGDGGKWKFEIYIPPGDTIVSAG [r14_849_TrROS] | 1.29 ± 0.12 kcal/mol | 0.664 ± 0.038 kcal/mol | 1.8 ± 0.095 kcal/mol
4 | SAWNFKIEEVEVDPNDGRIWFTVKIPPNNPELAEEIAEELQDYGIKVKLINPDLPPGQTIIVQIEVKDPSAG [r14_354_TrROS] | 1.83 ± 0.18 kcal/mol | 1.3 ± 0.096 kcal/mol | 2.09 ± 0.18 kcal/mol
5 | SAWYIIKIEIYNPGQNEPIASHTFMVPEEDLDAFKEKIADQFGMNPGWQIKVEIQPIPPVRDKDGEWKWSAG [r14_297_TrROS] | 1.91 ± 0.086 kcal/mol | 1.54 ± 0.036 kcal/mol | 2.13 ± 0.077 kcal/mol
6 | SAYKITIKITITDPVTGETTTITVELISSEEEAKKEAEKLAASYPGKKVTIDLVEVVPVPPLSEEELKLSSA [r9_421_JUSTAS] | 2.43 ± 0.12 kcal/mol | 1.91 ± 0.081 kcal/mol | 2.68 ± 0.054 kcal/mol
7 | SDALKNIPFEIVEIDPPPPDRPIPAGGTVRITVYNPLTPGQPFTFDVRFIPGEGTLIAEIGGLPVEIPIGSA [r9_243_TrMRF] | 2.94 ± 0.12 kcal/mol | 2.53 ± 0.079 kcal/mol | 3.46 ± 0.082 kcal/mol
8 | SDEDLEILRVEATPDTIRILFKIPSNPDLYIEVPITVFEDETSRRILINARILRPETGEVIAEIPFEIPLSA [r9_18_TrMRF] | 3.78 ± 0.24 kcal/mol | 3.53 ± 0.16 kcal/mol | 4.24 ± 0.13 kcal/mol
9 | SDKVEIWIPIPDGFWVRIKYDKPGKREITIWMPEDNPEFRKHGSMDQFIKHLARKLGLDPDKVKVDMYPMSA [r9_401_TrROS] | 3.69 ± 0.14 kcal/mol | 3.13 ± 0.1 kcal/mol | 4.11 ± 0.098 kcal/mol
10 | SDLDPNSTLVFSAPFPVSDPDALLEHAETVARELGPDVRVERVVFDPNTPNVAVVEVSVPGGTVTLVYSRSA [r9_1079_TrMRF] | 1.33 ± 0.062 kcal/mol | 1.24 ± 0.017 kcal/mol | 1.36 ± 0.061 kcal/mol
11 | SDNFQPDMTFPVTEIGDDKVTMKYNGKPYYIPTSKITSPNVTVKITDGTVSEVSSPSPSPLPPENIKKLSSA [r9_842_JUSTAS] | -0.263 ± 0.42 kcal/mol | -0.705 ± 0.24 kcal/mol | -0.293 ± 0.35 kcal/mol
12 | SDPDAKLLPATFTFRDPLTGEEVTVEVTVYETSGYLLAPAKVTVTLPTKPRTLTATLLVDENGNVHLFVSSA [r9_1015_TrMRF] | 3.73 ± 0.17 kcal/mol | 2.82 ± 0.2 kcal/mol | 4.31 ± 0.08 kcal/mol
13 | SDPILEILKDAFQEFGIPVQVSIEPDPDGKRVIPIRIMSPKDMDENGMKMQEQTFPIKVNGKKWRVEISWSA [r9_489_TrROS] | 1.41 ± 0.11 kcal/mol | 1.45 ± 0.084 kcal/mol | 1.31 ± 0.14 kcal/mol
14 | SDPNKPWTAEEIAKIIEEKILEEFDVEEIIPKELKVFPKEGTVKVKMLVKYKGEPGKYFELEVEISPEELSA [r9_1002_TrMRF] | 2.52 ± 0.081 kcal/mol | 1.58 ± 0.037 kcal/mol | 2.9 ± 0.038 kcal/mol
15 | SDWHYIQIPFEITFKAPPEQARQFVEDLAENLGITDINVDNIEYDPNNGEVKVKVSISIMIPPPPPPEDDSA [r9_918_TrROS] | 2.73 ± 0.2 kcal/mol | 2.36 ± 0.15 kcal/mol | 3.36 ± 0.12 kcal/mol
16 | SDYYIINIKIEVYYDGKPVREIPIFILVPPEQALMIAETIAEMLPGYKVKIKINVYRIPEDDPELREAFGSA [r9_782_TrROS] | 2.93 ± 0.18 kcal/mol | 2.31 ± 0.077 kcal/mol | 3.26 ± 0.044 kcal/mol
17 | SEAEEAARKLAEELGLEVEVVEVDEETGTVTVRVRFEDEPTVTITITFDEETGELTVTIEVRPPPPPPPESA [r9_1119_TrROS_Hall] | 3.72 ± 0.43 kcal/mol | 3.49 ± 0.23 kcal/mol | 3.51 ± 0.54 kcal/mol
18 | SEAEIKIKEVDENGYLVLEIKVPKEEVEKLREKLKELFPNAEIVEVKYDEETGEVTIIVRLPDGKLYEFKSA [r9_1164_TrROS_Hall] | 1.06 ± 0.13 kcal/mol | 1.05 ± 0.076 kcal/mol | 1.05 ± 0.099 kcal/mol
19 | SEDTVTIEVRAFPVKDKNGKPRFYVSIEFGNGPVSYPIPGLPEGMKEGETFTIEIPPENIKKVDISIMPYSA [r9_769_TrROS] | 1.97 ± 0.19 kcal/mol | 2.09 ± 0.12 kcal/mol | 2.09 ± 0.1 kcal/mol
20 | SEEEIEERIKKLAEELGFKVTEIKIEKTDNKLTVTVTITLPNGKKLTFTVTRDKNGKLTFTPEQLKKALKSA [r9_85_TrROS_Hall] | 3.21 ± 0.07 kcal/mol | 2.36 ± 0.038 kcal/mol | 3.609 ± 0.022 kcal/mol
21 | SEEEIVEEPPPETRTLTLELVDPETGELVATITVSPDGTVTLTVRTPDGEEKTITVPEGMSLEEALAAALSA [r9_346_TrROS_Hall] | 4.18 ± 0.45 kcal/mol | 3.19 ± 0.21 kcal/mol | 4.39 ± 0.24 kcal/mol

Row | Sequence | folding stability dG unfold [1] | folding stability dG unfold [2] | folding stability dG unfold [3]
22 | SEEEYLVIEVEFEVENPEEAREFAERLARELPLDEIESLEVEVEPREVFVEGEPVGPVYRFRVRAVVRPRSA [r9_605_TrMRF] | 2.77 ± 0.079 kcal/mol | 2.62 ± 0.069 kcal/mol | 2.98 ± 0.048 kcal/mol
23 | SEEPVEERDIVVKPGEEVKLELPEEPETVRVYVFNEDGELIEEREFPPGATPEELEGLKLPPGAVVRIVRSA [r9_215_TrROS_Hall] | 2.2 ± 0.045 kcal/mol | 1.32 ± 0.036 kcal/mol | 2.54 ± 0.029 kcal/mol
24 | SEFPESVPVDWVERELTFSSSSKEELEKKIKELLKNIEIEVSYDPKTNKYTLKIKFPSKEKAEKVEELLSSA [r9_764_JUSTAS] | 2.96 ± 0.14 kcal/mol | 2.22 ± 0.067 kcal/mol | 3.268 ± 0.026 kcal/mol
25 | SEKPEFKIVKIEVVEVDEDGKTVKVRVVVEGPDGRLYEVEMTLEELKKLLEELGIDLEDIKPGDVIVIPPSA [r9_1078_TrROS_Hall] | 3.58 ± 0.15 kcal/mol | 3.75 ± 0.11 kcal/mol | 3.09 ± 0.073 kcal/mol
26 | SEKPEVTIKIEVEEREDGYLVVRVEVTFPEDPEKVELTLEMSREEAEELAKKLAEELPGVKVKVEIVELPSA [r9_374_TrROS_Hall] | 2.44 ± 0.14 kcal/mol | 2.41 ± 0.17 kcal/mol | 2.4 ± 0.17 kcal/mol
27 | SEKVKITIEVWRPPGWWYVKIKLPDNGQEITYPFDSAEDFKEQIKKWLGLPPDNVKITDVEVYPMPPDDFSA [r9_909_TrROS] | 2.52 ± 0.22 kcal/mol | 1.82 ± 0.11 kcal/mol | 3.14 ± 0.081 kcal/mol
28 | SELEDMTPEQLRERIRELLEELREERPGEEVEITIEELLERLPGMSREQLAEILGLTEEELENRTITIRASA [r9_525_TrROS_Hall] | 2.35 ± 0.14 kcal/mol | 2.08 ± 0.11 kcal/mol | 2.47 ± 0.085 kcal/mol
29 | SELVEKAAEKGVKEIHIYLSEEQREAILKAADAGVKITIHLPEGATVEELKALPGIKVDKVEVFSPEELKSA [r9_671_TrROS_Hall] | 0.0735 ± 0.14 kcal/mol | 0.273 ± 0.044 kcal/mol | -0.078 ± 0.082 kcal/mol
30 | SENKPVTVLVNVTKNEDGTYTARVFVFDENGKLLAEEEVEAPLEKAVELVEALKKAYPNAKVVAVFTEGLSA [r9_374_TrMRF] | 4.67 ± 0.2 kcal/mol | 3.63 ± 0.23 kcal/mol | 4.81 ± 0.21 kcal/mol
31 | SENPVLKNRPLPVVGTTERTSVAKPGESLDVKELPSNGIVATTPDGSTVGITVTVDANGNVLSLEIKPDPSA [r9_1195_JUSTAS] | 0.164 ± 0.12 kcal/mol | 0.00583 ± 0.068 kcal/mol | 0.272 ± 0.069 kcal/mol
32 | SENWEPEPITFPDGITIWVMPDYGMIDIIDPDKGTFEMFMIRVDPNGKPEINPLTFKLDPPNGKIKDITPSA [r9_122_TrROS] | 0.49 ± 0.26 kcal/mol | 0.657 ± 0.2 kcal/mol | 0.572 ± 0.91 kcal/mol
33 | SEPLTPEEVEKFAEWIAKELNEEHGKEVKVEVEYHPDDGYFRAEIEIPNGRRIEITFNPEFGQLDIEVEDSA [r9_9_TrROS] | 1.71 ± 0.27 kcal/mol | 1.31 ± 0.18 kcal/mol | 2.36 ± 0.062 kcal/mol
34 | SEPVPVKIEISTSVDSNGNPSVTITVYNEEKVYTNPLNGATILSVDPNKQYIVIENPALGTKLTLSYTLISA [r9_1186_JUSTAS] | 2.49 ± 0.093 kcal/mol | 2.07 ± 0.086 kcal/mol | 2.75 ± 0.048 kcal/mol
35 | SEVEVTVTVTLTRRLPDGREREVTVTLTLRLEFDPELSEEELESPELRKRLEELRREALERARRLAEELASA [r9_237_TrROS_Hall] | > 6 kcal/mol | 4.64 ± 0.18 kcal/mol | 6.52 ± 0.22 kcal/mol
36 | SFKLEKTITLPDYVLKIEVTFKPKPDKTVIAPIKVTIYDPVKKKPYTKELTKPFPPEDPLKFVEEALKEIFS [r1_171_TrMRF] | 0.438 ± 0.33 kcal/mol | 0.425 ± 0.1 kcal/mol | 0.235 ± 0.42 kcal/mol
37 | SFKLPPGQEIKVKIFILFVDPGDGRMYFIKIEYEITIKPDDDGNLDLDIEPTNIEVVGPMPADEAKEFFKSA [r9_423_TrROS] | 2.34 ± 0.25 kcal/mol | 2.47 ± 0.086 kcal/mol | 2.54 ± 0.16 kcal/mol
38 | SFSISTETKVVPQDGRLLIEYEFTVPNAPPGDTAALTLSVSHPSGASTSTSQTADPAGTYTAKFVVDIPLTS [r1_161_JUSTAS] | 0.527 ± 0.053 kcal/mol | 0.437 ± 0.061 kcal/mol | 0.471 ± 0.09 kcal/mol
39 | SGEPVIVKITFPDGTVLEIEFEGTPEEVKEAVEEEIKEYAKKHGLKPGEFKVEVIKAGDKTKETYTIKVESA [r9_1193_TrMRF] | 1.87 ± 0.15 kcal/mol | 1.5 ± 0.098 kcal/mol | 2.03 ± 0.071 kcal/mol
40 | SGFEVERVEVEADLDKPTVARFLLVNPDGQPIVALDPVVRLGEEALVLSVYRNPVDGELRVTARRIRLDGSA [r9_269_TrMRF] | 1.21 ± 0.043 kcal/mol | 1.1 ± 0.068 kcal/mol | 1.24 ± 0.11 kcal/mol
41 | SGFTVEVEVEYYPETGVLEVTVTTDGSSEQLIRDVADFIKEAGLDFVIESVEVEESGEVTTITLKLYVPPSA [r9_164_TrMRF] | 3.78 ± 0.21 kcal/mol | 3.03 ± 0.18 kcal/mol | 4 ± 0.12 kcal/mol
42 | SGGMVNATVTVTLPLPDLPPVTLTVTITEEATPEEAEARKKALAAELEAELRAAAADAALPAPALTSALLSA [r9_626_JUSTAS] | 1.24 ± 0.29 kcal/mol | 1.85 ± 0.032 kcal/mol | 0.156 ± 0.43 kcal/mol
